Source: patent US20060015949A1

Experiments:
[1] = target: recombinant soluble human CD4 (human) (UniProt P01730); experiment: BIAcore, mAb captured by goat anti-human IgG Fc on chip, rCD4 flowed over (affinity)
[2] = target: recombinant soluble human CD4 (human) (UniProt P01730); experiment: ratio of Ka on rCD4 (BIAcore) to Ka on nCD4 (SupT1 flow cytometry)
[3] = target: recombinant soluble human CD4 (human) (UniProt P01730); experiment: BIAcore on rCD4 (column repeats Table 19)
[4] = target: native human CD4 on the cell surface (human) (UniProt P01730); experiment: flow cytometry, serial dilutions on SupT1 cells, half-maximal fluorescence
[5] = target: recombinant soluble human CD4 (human) (UniProt P01730); experiment: BIAcore, rCD4 coupled to chip, mAb flowed over (avidity)
[6] = target: recombinant soluble human CD4 (human) (UniProt P01730); experiment: SPR, sCD4 amine-coupled to sensor chip, mAb flowed over

Substance | Ka [1] [M⁻¹] | koff [1] [s⁻¹] | kon [1] [M⁻¹ s⁻¹] | Ratio of Ka (rCD4/nCD4) [2] | Ka [3] [M⁻¹] | Ka [4] [M⁻¹] | Ka [5] [M⁻¹] | koff [5] [s⁻¹] | kon [5] [M⁻¹ s⁻¹] | Ka [6] [M⁻¹] | koff [6] [s⁻¹] | kon [6] [M⁻¹ s⁻¹]
chimeric Leu3a (antibody) | 6.6e+08 | 0.00023 | 150000 | 6.1 | 3.4e+10 | 5.6e+09 | 3.4e+10 | 1.2e-05 | 400000 |  |  | 
Leu3a (antibody) |  |  |  |  |  |  | 3.7e+10 | 4.2e-06 | 150000 | 3.7e+10 | 0.00042 | 150000
